# Experimental data reported in patent publication US8003342.
# Key:
# [1] = biological target: T1, rat brain farnesyl:protein transferase (rat, UniProt Q04631 2-377; Q02293 1-437); assay: cell-based or functional assay
# [2] = biological target: T1, rat brain farnesyl:protein transferase; assay: cell-based or functional assay; remark: listed apart in the source
Binder,Concentration for 50% Inhibition [1] [µM],"fold decrease of affinity against CVIM, from the concentration required for 50% inhibition [2] [fold]"
CIKS,100,
CVAM,,30
